Results published in patent publication US20180187185.

Columns and labels:
Assay in all cases: cell_activity
[1] = test system: Bmpr2 REV RTN (Ralstonia TALE 16 EBEs in Xanthomonas TAL backbone-FokI) (Ralstonia (TALE repeats); Xanthomonas backbone); settings: RTN pair p1+p2, Rat C6, Surveyor 250 bp band; 5.43% by 150 bp band; printed SEQ 150 differs from SEQ 148 complement at position 5
[2] = test system: AAVS1 TALE-Clo051 (Clo051-XTN) (Xanthomonas TALE); settings: average of replicates; locus inferred AAVS1; sequencing gave 9.3% indels (FIG. 11)
[3] = test system: AAVS1 TALE-FokI (FokI-XTN) (Xanthomonas TALE); settings: average of replicates; locus inferred AAVS1; sequencing gave 6.5% indels (FIG. 12)
[4] = test system: Bmpr2 XTN (Xanthomonas TALEN-FokI pair) (Xanthomonas); settings: TALEN pair, Rat C6, Surveyor 250 bp band; 3.66% by 150 bp band; XTN RVDs and half-sites not stated
[5] = test system: Bmpr2 FWD RTN (Ralstonia TALE 16 EBEs in Xanthomonas TAL backbone-FokI) (Ralstonia (TALE repeats); Xanthomonas backbone); settings: RTN pair p1+p2, Rat C6, Surveyor 250 bp band; 5.43% by 150 bp band

With “TGACAGGTAAACGAAATA (double strand) [Bmpr2 reverse half-site (complement of the printed strand)]” the activity [1] was 1.82 % cutting.
AAVS1 target locus gave an activity [2] of 8.1 % cutting and an activity [3] of 7.1 % cutting.
With “TTGATAGTCGCCTTATGTTTTGGATACAGAATGTTGACAGGTAAACGAAATA (double strand) [Bmpr2 full TALEN target site]” the activity [4] was 5.75 % cutting.
With “TTGATAGTCGCCTTATGT (double strand) [Bmpr2 forward half-site]” the activity [5] was 1.82 % cutting.
